# T1: Nup98 (endogenous) (human (endogenous in HEK 293 and HeLa), UniProt P52948 1-880)
# T1 construct: also called nucleoporin Nup98
# T1 sequence (looked up): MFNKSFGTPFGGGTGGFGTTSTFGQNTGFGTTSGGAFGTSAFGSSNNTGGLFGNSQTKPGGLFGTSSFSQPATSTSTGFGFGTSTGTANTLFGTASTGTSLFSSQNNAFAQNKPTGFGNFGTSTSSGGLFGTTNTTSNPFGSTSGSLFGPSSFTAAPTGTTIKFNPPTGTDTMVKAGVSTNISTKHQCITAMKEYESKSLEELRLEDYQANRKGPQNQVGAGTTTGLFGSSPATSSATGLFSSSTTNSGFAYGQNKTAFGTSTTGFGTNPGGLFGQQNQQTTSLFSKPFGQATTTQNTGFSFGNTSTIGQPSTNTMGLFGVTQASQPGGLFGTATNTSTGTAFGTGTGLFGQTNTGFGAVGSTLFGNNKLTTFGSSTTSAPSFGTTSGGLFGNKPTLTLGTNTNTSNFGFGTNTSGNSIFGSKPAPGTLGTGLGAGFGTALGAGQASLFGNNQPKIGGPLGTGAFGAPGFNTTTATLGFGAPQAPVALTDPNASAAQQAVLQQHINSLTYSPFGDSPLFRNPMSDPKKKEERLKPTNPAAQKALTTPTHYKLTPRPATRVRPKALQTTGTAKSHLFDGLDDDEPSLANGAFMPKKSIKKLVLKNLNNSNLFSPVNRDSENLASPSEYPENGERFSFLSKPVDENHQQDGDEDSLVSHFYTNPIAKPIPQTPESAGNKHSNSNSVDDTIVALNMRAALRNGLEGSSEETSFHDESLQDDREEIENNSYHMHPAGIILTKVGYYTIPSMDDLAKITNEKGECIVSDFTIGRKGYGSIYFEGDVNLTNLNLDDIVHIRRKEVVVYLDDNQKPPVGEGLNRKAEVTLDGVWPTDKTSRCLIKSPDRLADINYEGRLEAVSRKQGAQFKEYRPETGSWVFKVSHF
# B1: Rae1 (endogenous) (natural protein, human (endogenous in HEK 293 and HeLa), UniProt P78406 1-368, looked up)
# chain: MSLFGTTSGFGTSGTSMFGSATTDNHNPMKDIEVTSSPDDSIGCLSFSPPTLPGNFLIAGSWANDVRCWEVQDSGQTIPKAQQMHTGPVLDVCWSDDGSKVFTASCDKTAKMWDLSSNQAIQIAQHDAPVKTIHWIKAPNYSCVMTGSWDKTLKFWDTRSSNPMMVLQLPERCYCADVIYPMAVVATAERGLIVYQLENQPSEFRRIESPLKHQHRCVAIFKDKQNKPTGFALGSIEGRVAIHYINPPNPAKDNFTFKCHRSNGTNTSAPQDIYAVNGIAFHPVHGTLATVGSDGRFSFWDKDARTKLKTSEQLDQPISACCFNHNGNIFAYASSYDWSKGHEFYNPQKKNYIFLRNAAEELKPRNKK
# notes: also called host Rae1; cellular Rae1
# Biological target: T1, Nup98 (endogenous)
# Assay: SEC + other: sucrose gradient sedimentation
# Conditions: partners not purified
binder,measurement,value
B1,stoichiometry N,1
